From doi:10.1101/2025.09.09.675193 (bioRxiv, 2025) come the findings set out here.

Square brackets hold non-standard residues; d marks the D form. Ends that are not written are not given here. * marks the point of attachment. 5FAM = O=C1OC2(c3ccc(O)cc3Oc3cc(O)ccc32)c2ccc(C(=O)*)cc21; pT = C[C@@H](OP(=O)(O)O)[C@H](N)C(=O)O; pS = N[C@@H](COP(=O)(O)O)C(=O)O

Data set [1] deals with recombinant TOPBP1 BRCT domains 7+8 (residues 1263-1495) (human, UniProt Q92547 1263-1495). Put plainly: fluorescence polarisation. In general terms: In fluorescence polarisation assays a small probe gives low polarisation when free and higher when bound to something large.
Chain of recombinant TOPBP1 BRCT domains 7+8 (residues 1263-1495) (Q92547 1263-1495): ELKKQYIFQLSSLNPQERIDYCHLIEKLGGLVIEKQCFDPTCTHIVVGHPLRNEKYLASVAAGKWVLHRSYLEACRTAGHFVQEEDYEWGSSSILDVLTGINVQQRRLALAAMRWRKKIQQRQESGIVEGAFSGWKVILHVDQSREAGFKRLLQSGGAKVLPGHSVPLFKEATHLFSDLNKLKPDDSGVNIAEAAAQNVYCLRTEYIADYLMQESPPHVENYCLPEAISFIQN
For data set [2], the target named is recombinant TOPBP1 BRCT domains 4+5 (residues 548-741) (human, UniProt Q92547 548-741). Put plainly: fluorescence polarisation.
Chain of recombinant TOPBP1 BRCT domains 4+5 (residues 548-741) (Q92547 548-741): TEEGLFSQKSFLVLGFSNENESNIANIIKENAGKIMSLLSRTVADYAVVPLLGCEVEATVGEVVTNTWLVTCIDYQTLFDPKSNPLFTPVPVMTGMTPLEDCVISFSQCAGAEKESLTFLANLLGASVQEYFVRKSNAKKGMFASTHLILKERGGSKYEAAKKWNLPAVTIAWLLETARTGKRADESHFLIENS
For another data set, the target named is T1, DDIAS OB fold WT (Homo sapiens, UniProt Q8IXT1 1-168).
T1 sequence: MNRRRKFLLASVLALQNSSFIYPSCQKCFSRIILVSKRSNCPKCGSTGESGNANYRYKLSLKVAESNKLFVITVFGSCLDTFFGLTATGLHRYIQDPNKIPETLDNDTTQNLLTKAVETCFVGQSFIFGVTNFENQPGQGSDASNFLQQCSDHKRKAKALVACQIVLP
Put plainly: EMSA. (In general: In EMSA bound probe runs differently from free probe, usually more slowly.)

The target of the next data set is T2, DDIAS OB fold C25A/C28A (Homo sapiens, UniProt Q8IXT1 1-168, C25A;C28A).
T2 sequence: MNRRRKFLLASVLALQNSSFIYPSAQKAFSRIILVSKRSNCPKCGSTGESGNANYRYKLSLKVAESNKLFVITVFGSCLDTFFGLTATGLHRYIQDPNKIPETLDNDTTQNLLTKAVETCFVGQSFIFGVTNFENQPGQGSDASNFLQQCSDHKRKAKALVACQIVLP
Put plainly: EMSA.

Turning to 5FAM-GSGEGSYDA[pS]ADLFDD (also: phosphoserine at Ser676 (S6 or S10)) [DDIAS-pS676 peptide, 5-carboxy-fluorescein labelled], the binding result in data set [1] is listed as “binds”.

As for 5FAM-GSGETDSDEWVPP[pT]TQK (also: phosphothreonine at Thr868 (position not mappable)) [DDIAS-pT868 peptide, 5-carboxy-fluorescein labelled], in data set [2], the binding result is on record as “binds”.

For 5FAM-GSGETRSAW[pS]PELFS (also: phosphoserine at Ser993 (position not mappable)) [DDIAS-pS993 peptide, 5-carboxy-fluorescein labelled], in data set [1], the binding result is listed as “binds”.

Turning to GATGAGATTGAGGCTGGCCTGCAGGCATGCAAGCACCTGG (ssDNA) [Cy5 40-nt ssDNA], the binding result in the data set with DDIAS OB fold WT is on record as “binds”; in the data set with DDIAS OB fold C25A/C28A, “no binding”.

B1: Cy5 40-bp dsDNA (dsDNA)
DNA 1: GATGAGATTGAGGCTGGCCTGCAGGCATGCAAGCACCTGG
DNA 2: CCAGGTGCTTGCATGCCTGCAGGCCAGCCTCAATCTCATC
As to B1, in the data set with DDIAS OB fold WT, the binding result is given as “no binding”.
